Experimental data from publication PMC7181051, “Probing the Protein-Protein Interaction between the ATRXADD Domain and the Histone H3 Tail” (Molecules, 2020).
Where “and” joins values, the source holds several entries; their conditions need not be identical. Equal entries are not always repeated. One block for each substance: values may come before it.

Legend:
[1] = target: Histone H3 (Homo sapiens) (UniProt P68431); details: cited from earlier work
[2] = target: Histone H3 H3 tail peptide (Homo sapiens) (UniProt P68431); details: cited from earlier work
[3] = target: Histone H3 1-15 (Homo sapiens) (UniProt P68431); experiment: ITC; details: cited from earlier work
[4] = target: ATRXADD-His (His-tagged ATRX ADD domain) (UniProt P46100); experiment: AlphaScreen or HTRF; competition, Ni-NTA kit: ATRXADD-His (625 nM), H3_(1-15)K9me3-biotin (94 nM), 20 μg/mL of each bead, unlabeled peptide added; HEPES buffer (50 mM HEPES, 100 mM NaCl, 0.1% Triton X-100, 0.1% BSA); 1 hour, room temperature, dark
[5] = target: ATRXADD-His (His-tagged ATRX ADD domain) (UniProt P46100); experiment: AlphaScreen or HTRF; direct signal, Nickel Chelate (Ni-NTA) kit: H3_(1-15)K9me3-biotin on streptavidin beads, ATRXADD-His on Ni-NTA beads; 20 μg/mL of each bead

Substance: ATRX ADD (from UniProt P46100)
Kd [1]: > 80 µM
Kd [2]: > 80 µM
Kd [3]: 0.385 µM and 2.7 µM

IC50 [4]: > 10 µM
Substance: H3_(1-15)K9me0 peptide (from UniProt P68431 2-16)

IC50 [4]: > 10 µM
Substance: H3_(1-15)K9me1 peptide (from UniProt P68431 2-16)

AlphaScreen signal [5]: 1.25e+06
Substance: H3_(1-15)K9me3-biotin peptide (biotin label at the C-terminus) (from UniProt P68431 2-16)
